Results reported in publication PMC9770967, “Native holdup (nHU) to measure binding affinities from cell extracts” (Science Advances, 2022).

Experiments:
SNX27_PDZ [1] = test: nHU-MS, SNX27_PDZ bait, total SH-SY5Y extracts; format: binding, human
Description: The empty His6-AviTag-MBP-TEV vector was used to produce biotinylated MBP for control experiments. Proteins were coexpressed with BirA biotin ligase (PET21a-BirA, Addgene, no. 20857) in Escherichia coli BL21(DE3) cells. At isopropyl-β-D-thiogalactopyranoside (IPTG) induction (1 mM IPTG at 18°C overnight), 50 μM biotin was added to the media. Harvested cells were lysed in a buffer containing 50 mM tris (pH 7.5), 150 to 300 mM NaCl, 50 μM biotin, 2 mM β-mercaptoethanol, cOmplete EDTA-free protease inhibitor cocktail (Roche, Basel, Switzerland), 1% Triton X-100, and trace amount of deoxyribonuclease, ribonuclease, and lysozyme. Lysates were frozen at −20°C before further purification steps. Lysates were sonicated and centrifuged for clarification. Expressed proteins were captured on in-house prepacked Ni-IDA (Protino Ni-IDA Resin, Macherey-Nagel, Duren, Germany) columns and were washed with at least 10 column volumes of cold wash buffer [50 mM tris (pH 7.5), 150 mM NaCl, and 2 mM β-mercaptoethanol] before elution with 250 mM imidazole. The Ni elution was collected directly on a preequilibrated amylose column (amylose high flow resin, New England Biolabs, Ipswich, MA). Amylose column was washed with 5 column volumes of cold wash buffer before fractionated elution in a buffer containing 25 mM Hepes (pH 7.5), 150 mM NaCl, 1 mM TCEP, 10% glycerol, 5 mM maltose, and cOmplete EDTA-free protease inhibitor cocktail. The concentration of proteins was determined by their ultraviolet absorption at 280 nm before aliquots were snap-frozen in liquid nitrogen and stored at −80°C.
For saturating streptavidin resin with biotinylated peptides or biotin, 50 μl of streptavidin resin was mixed with biotin or peptide at 40 to 60 μM concentration in 6 to 6.5 resin volume for 60 min. To saturate streptavidin resin with biotinylated proteins, 50 μl of streptavidin resin (Streptavidin Sepharose High Performance, Cytiva) was mixed with biotinylated MBP or MBP-PDZ at 40 to 50 μM concentration in 20× resin volume for 60 min. After saturation, resins were washed a single time [10 resin volume, holdup buffer: 50 mM tris (pH 7.5), 300 mM NaCl, and 1 mM TCEP, 0.22-μm filtered] and were depleted with biotin (10 resin volume, 10 min, holdup buffer supplemented with 100 μM biotin). Last, resins were washed two times (10 resin volume, holdup buffer).
For single-point nHU experiments carried out at ~10 μM bait concentration, 50 μl of saturated streptavidin resin was mixed with 200 μl of cell lysate (2 mg/ml). Titration experiments were carried out by mixing control and bait-saturated resin and keeping the total resin volume constant; e.g., ~5 μM bait concentration can be achieved by mixing 25 μl of bait-saturated streptavidin resin with 25 μl of control resin and 200 μl of cell lysate (2 mg/ml). Control and bait-saturated resins were prepared in larger amounts, and a serial dilution was prepared with these presaturated resins to achieve different resin ratios.
Unless specified elswhere, the nHU mixture was incubated at 4°C for 2 hours. After the incubation ended, the resin was separated from the supernatant by a brief centrifugation (15 s, 2000 g). Then, half of the supernatant was removed by pipetting without any delay to avoid any resin contamination; e.g., 100 μl of supernatant is collected if 200 μl of cell lysate was used as analyte. Alternatively, the supernatant can be centrifuged an additional time to clarify it further, removing any possible resin contamination. […]

SNX27_PDZ [2] = test: AP-MS control pull-down on leftover resin, SNX27_PDZ bait, total SH-SY5Y extracts; format: binding, human; conditions: n = 6
Description: Leftover beads from nHU-MS experiments were washed three times immediately after the separation of the supernatant [10 resin volume in buffer containing 50 mM tris (pH 8.5), 150 mM NaCl, 1% Triton X-100, 10× cOmplete EDTA-free protease inhibitor cocktail, 2 mM EDTA, and 1 mM TCEP]. Then, the beads were washed two times [10 resin volume buffer containing 50 mM tris (pH 8.5), 150 mM NaCl, and 1 mM TCEP]. Last, captured protein was eluted from the resin in two steps, and the eluted fractions were pooled. For each elution, the beads were incubated for 30 min with three resin volume buffer containing 20 mM tris (pH 8.5), 100 mM NaCl, 500 μM TCEP, and 8 M urea. Between each step, the beads were separated by mild centrifugation, and the supernatant was removed by gentle pipetting.
The nHU samples were precipitated with trichloroacetic acid (TCA) 20% overnight at 4°C and centrifuged at 14,000 rpm for 10 min at 4°C. The protein pellets were washed twice with 1 ml of cold acetone and air-dried. […]
Samples were analyzed using an Ultimate 3000 nano-RSLC coupled in line via a nano-electrospray ionization source, with an LTQ-Orbitrap ELITE mass spectrometer (Thermo Fisher Scientific, San Jose, CA) or with the Orbitrap Exploris 480 mass spectrometer (Thermo Fisher Scientific, Bremen, Germany) equipped with a high field asymmetric ion mobility spectrometry (FAIMS) module. […]

- pKapp_HU_not_filtered (SNX27_PDZ [1]; apparent, Eq. 2, not filtered for significance): 4.74
- pKapp_significant_binders_HU (SNX27_PDZ [1]; apparent, Eq. 2, significant binders (1 σ, P < 0.05)): 4.74
B1: CNBP: Cellular nucleic acid-binding protein (protein, UniProt P62633 2-177, looked up)
CCHC-type zinc finger nucleic …: SSNECFKCGRSGHWARECPTGGGRGRGMRSRGRGGFTSDRGFQFVSSSLPDICYRCGESGHLAKDCDLQEDACYNCGRGGHIAKDCKEPKREREQCCYNCGKPGHLARDCDHADEQKCYSCGEFGHIQKDCTKVKCYRCGETGHVAINCSKTSEVNCYRCGESGHLARECTIEATA
- BI_HU (SNX27_PDZ [1]; n = 6): 0.3538
- FC_HU (log2 fold change) (SNX27_PDZ [1]; n = 6): -0.63
- Ratio_HU (SNX27_PDZ [1]; n = 6): 0.6462
- FC_AP (log2 fold change) (SNX27_PDZ [2]): -0.3792
- Ratio_AP (SNX27_PDZ [2]): 0.7689
